Test results as given in article PMC5643558.
One block for each substance: values may come before it.

Experiments:
[1] = target: TRIM21 (UniProt P19474); assay: SFB-TRIM21 pull-down from cells, Flag blot; conditions: reference: WT Flag-rPFKP, EGF; sites S386
[2] = target: TRIM21 (UniProt P19474); assay: S-tag pull-down after in vitro kinase assay; conditions: sites S386

binding against the reference [1]: stronger
Substance: PFKP (phosphofructokinase 1 platelet isoform) (from UniProt Q01813) Flag-rPFKP S386A, EGF

binding against the reference ([2]; reference: WT PFKP incubated with active GST-AKT1): stronger
Substance: PFKP (phosphofructokinase 1 platelet isoform) (from UniProt Q01813) PFKP S386A incubated with active GST-AKT1

binding against the reference ([2]; reference: WT PFKP without AKT1): weaker
Substance: PFKP (phosphofructokinase 1 platelet isoform) (from UniProt Q01813) WT PFKP incubated with active GST-AKT1
